Numbering of substitutions follows the chain as printed.
Assays:
[1] = molecular target: T1, recombinant His-tagged Der p1 (dust mite, UniProt P08176 99-320, limits assumed); experiment: ELISA, antigen coated on plate
T1 construct: Recombinant His-tagged protein made by the applicant; also called Der p1-His; Der pl; not shown: His tag
T1 sequence (looked up): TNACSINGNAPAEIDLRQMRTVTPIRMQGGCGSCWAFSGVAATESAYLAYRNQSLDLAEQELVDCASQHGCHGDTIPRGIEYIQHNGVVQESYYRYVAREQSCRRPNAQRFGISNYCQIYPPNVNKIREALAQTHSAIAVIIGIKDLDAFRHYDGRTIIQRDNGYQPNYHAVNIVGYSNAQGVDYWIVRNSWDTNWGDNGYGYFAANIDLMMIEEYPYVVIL
Procedure: (§1) 2 microgram per milliliter (μg/mL) target antigen is coated in a 96-well plate and ELISA assay is performed after incubation with candidate VHHs. The binding EC50 of each clone is calculated using Prism GraphPad. The positive control antibody is involved as an internal control.
Isolated VHH clones were further validated by performing an ELISA assay as described in Example 1. The individual binding curves are shown for each candidate in FIGS. 9A-9K.

[2] = molecular target: T2, recombinant His-tagged Can f2 (dog (Canis familiaris), UniProt O18874 19-180); experiment: ELISA, antigen coated
T2 construct: also called Can f2-His; recombinant Can f2; not shown: His tag
T2 sequence (looked up): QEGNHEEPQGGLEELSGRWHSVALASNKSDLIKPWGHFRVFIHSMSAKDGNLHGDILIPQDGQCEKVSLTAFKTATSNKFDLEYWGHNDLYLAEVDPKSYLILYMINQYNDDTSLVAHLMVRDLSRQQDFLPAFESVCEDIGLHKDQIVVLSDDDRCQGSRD
Procedure: as §1
(§2) Isolated VHH clones were further validated by performing an ELISA assay as described in Example 1. Metrics of thermostability including melting temperature (Tₘ), onset temperature (Tₒₙₛₑₜ), and temperature of aggregation (Tagg), were also tested with increasing temperature in the range of 20° C.-95° C. at the speed of 1° C./min. The individual binding curves are shown for each candidate in FIGS. 7B-7P.

[3] = Thermostability (Tm, Tonset, Tagg) by Nanotemper DSF; assay type: physicochemical; set-up: key to Tm2 / Tagg / Tm1 / Tm / Tm3 / Tonset / Tonset ø (mean) / Tagg ø (mean): temperatures in °C; details: for Tm: single melting point; for Tm1: first melting point; for Tm2: second melting point; for Tm3: third melting point
Procedure: as §2, with “(Tm),” for “(Tₘ),”, “(Tonset),” for “(Tₒₙₛₑₜ),”, “C./min. These measurements were performed using a Nanotemper DSF. When applicable, Tm1 refers to the first melting point observed, Tm2 refers to the second melting point observed, etc., Sequence information for the VHH clones and the binding assay results are summarized in Table 3.” for “C./min.”, “3B-3I.” for “7B-7P.”
as §2, with “(Tm),” for “(Tₘ),”, “(Tonset),” for “(Tₒₙₛₑₜ),”, “5B-5H.” for “7B-7P.”
as §2, with “(Tm),” for “(Tₘ),”, “(Tonset),” for “(Tₒₙₛₑₜ),”
The detailed thermostability graphs used to determine the Tm, Tonset, and Tagg are illustrated in FIGS. 19A-19I and raw data is summarized in Table 23. Any subsequent melting points observed (Tm1, Tm2, Tm3, etc.) are separated by commas.

[4] = anti-Can f2 VHH, 20° C.-95° C. at 1° C./min
[5] = anti-Can f2 VHH, in °C (unit assumed)
[6] = Average of two replicates, anti-Fel d1 VHH

B1: SDAB22129-55-35-46-49-1-G09 (VHH)
VHH: QVKLEESGGGAVQPGGSLRLSCTASGQTFSNYIISWFRQAPGKEREFVVGISKSGGRTYYADSAKGRFTISRDNAKNTVYLQMSSLKPEDTAVYYCAADGLVLTAAAAEYDYWGQGTQVTVSS
notes: Expressed from a prokaryotic vector
Work on B1 yielded an EC50 [1] of 0.154 µg/mL.

B2: SDAB22118-189-192-1-H03 (VHH)
VHH: EVQLVESGGGLVQARGSLRLSCAASGRTFNNYAMGWFRQAPGKEREFVAAIASNTGTTYYAGSVKGRFAISRDNAKNTVDLHMNSLKPEDTAVYYCALGPLRLGWWYDSRPYDYWGQGTQVTVSS
notes: anti-Can f2 alpaca VHH; prokaryotic expression
B2 gave an EC50 [2] of 0.0575 µg/mL.

B3: SDAB22118-3-G05 (VHH)
VHH: AVQLVESGGGLVQAGGSLRLSCAASGRTFNNSVMGWFRQAPGKEREFVAAISRSGAFAHYAESVEGRFTISRDNAKNTVYLQMNSLKPEDTAVYYCAAGAILLPTERRYDYWGQGTQVTVSS
notes: as for B2
In the case of B3, the EC50 [2] is reported as 0.149 µg/mL.

B4: SDAB22118-1-F04 (VHH)
VHH: QVQLVESGGGLVQPGGSLRLSCAYSGFTLDNNVIGWFRQAPGKEREFVAAISRSGAFTHYTESVQGRFTISRDNAKNTVYLQMNSLKPEDTAVYYCAAGAILLPTERRYDYWGQGTQVTVSS
notes: as for B2
B4 gave a Tagg [3, 4] of 48.08, a Tm [3, 5] of 58.63 and an EC50 [2] of 0.0639 µg/mL.

B5: SDAB22118-1-D05 (VHH)
VHH: B3 VHH with A1Q, R19G, S32Y, A56S, A58T, S63A, E65Q, N77I, L103M, R108T
notes: as for B2
In the case of B5, the Tagg [3, 4] is reported as 39.54, the Tm1 [3, 5] is reported as 48.35 and the Tm2 [3, 5] is reported as 58.58. The Tm3 [3, 5] was 64.58 and the EC50 [2] was 0.0762 µg/mL.

B6: DAB22110-1-1-C3 (protein)
VHH: QLQLVESGGGLVQPGGSLRLSCEASGFTFKYYTMSWYRQAPGKERELVATITNGDRTNYADSVKGRFTISRDNAKNTLYLQMNSLKPYDTAVYYCNRHLPLLQIWGQGTQVTVSS
In the case of B6, the “Tagg ø (mean)” value [3, 6] is reported as 58.93, the “Tonset ø (mean)” value [3, 6] is reported as 58.06 and the “Tm ø (mean), first melting point (Tm1)” value ([3]; Average of two replicates, anti-Fel d1 VHH, in °C (unit assumed)) is reported as 66.50. The Tagg ([3]; Replicate 1) was 59.02, the Tonset ([3]; Replicate 1) was 58.17 and the “Tm, first melting point (Tm1)” value ([3]; Replicate 1, in °C (unit assumed)) was 66.50. For the same molecule, the Tagg ([3]; Replicate 2) was 58.85, the Tonset ([3]; Replicate 2) was 57.94 and the “Tm, first melting point (Tm1)” value ([3]; Replicate 2, in °C (unit assumed)) was 66.51.

B7: SDAB22118-1-B11 (VHH)
VHH: AVQLVESGGGLVQPGGSLRLSCAASGFTFSNYYMSWYRQAPGKEREWVAFITSTGSSTNYANSVKGRFTASRDNAKNTVYLQMNSLKPEDTAVYYCKTRLWGNDYWGKGTLVTVSS
notes: as for B2
With B7 the Tagg [3, 4] was 44.54, the Tm [3, 5] was 55.17 and the EC50 [2] was 0.164 µg/mL.

B8: SDAB22118-189-192-1-E09 (VHH)
VHH: EVQLVESGGGLVQPGGSLRLSCAASGTIFLINRMGWYRQAPGKQRELVATSFTSGNSTMYADSVKGRFTISRDNAKKTVYLQMNSLKPEDTAVYYCKARISRRYGNWDDYWGQGTQVTVSS
notes: as for B2
Work on B8 yielded an EC50 [2] of 0.0571 µg/mL.

B9: SDAB22118-3-F08 (VHH)
VHH: QVQLVESGGGLVQPGESLRLSCAASGSIFSIYRMGWYRQAPGEQREHVATVTSGGGTGYADSVKGRFTIYRDNAKNTVYLQMNSLKPEDTAVYSCYAIPKSWSRTSEYSWGQGTQVTVSS
notes: as for B2
Work on B9 yielded an EC50 [2] of 0.0595 µg/mL.

B10: SDAB22118-189-192-1-C05 (VHH)
VHH: QVQLVESGGGGVQAGGSLRLSCVASQSHFGYNVMGWYRQAPGRQRELVATIISSGGTNYADSVKGRFTISRDNAKNTVHLSMDSLNVEDTAVYFCYAKGVWLGREYWGQGTQVTVSS
notes: as for B2
Molecule B10 has an EC50 [2] of 0.0325 µg/mL.

B11: SDAB22118-2-G01 (VHH)
VHH: AVQLVDSGGGLVQAGDSLRLSCVASGRTFSSYVMGWFRQAPGKERLIVATISKSGSLTHYADSVEGRFTISRDNAKNTVYLQMNSLEPEDTAVYYCTPVSDLTGRRLGSYWGQGTQVTVSS
notes: as for B2
B11 showed a Tagg [3, 4] of 38.93, a Tm [3, 5] of 43.71 and an EC50 [2] of 0.0736 µg/mL.

B12: SDAB22118-189-192-1-C10 (VHH)
VHH: EVQLVESGGGLVQAGGSLRLSCAASGRTFSEYIMGWFRQAPGKERVFVSTISKSGAITNYADSVQGRFTISRDNAKNTVYLQMNSLKPEDSAVYYCAAGPLLSPAGRQYDYWGQGTQVTVSS
notes: as for B2
With B12 the EC50 [2] was 0.0217 µg/mL.

B13: SDAB22129-55-35-46-49-1-A04 (VHH)
VHH: QLQLVESGGGLVQPGGSLRLSCAASGRVYNSWTMAWFRQAPGKEREFVGAFSLLDSGTRYADSLKDRVAISRDDAANTQWLQLSALKPEDTAVYYCAAKSGTIRATSEGQYNYWGQGIQVTVSS
notes: as for B1
B13 gave an EC50 [1] of 3.41 µg/mL.

B14: SDAB22118-3-B02 (VHH)
VHH: AVQLVDSGGGLVQPGGSLRLSCAASGRTFSYYAMGWFRQALGKEREFVAASSRTGRVTNYADSVKGRFTISRDNAKNTVYLQMNSLKPEDTAIYYCAADDRFYGGDNPAFYNSWGQGTQVTVSS
notes: as for B2
Molecule B14 has an EC50 [2] of 0.00759 µg/mL.

B15: SDAB22118-1-D08 (VHH)
VHH: EVQLVESGGGLVQPGGSLRLSCVVSGSIFSDNAMGWYRQAPGKQREMVAIISSVGTTNNVDSVNGRFTISRDNAKNTVYLQMNSLKPEDTAVYYCKDFSAPRYWGQGTQVTVSS
notes: as for B2
For B15, the Tagg [3, 4] was 40.82, the Tm1 [3, 5] was 38.89 and the Tm2 [3, 5] was 43.62. It also gave a Tm3 [3, 5] of 54.69 and an EC50 [2] of 0.0486 µg/mL.

B16: SDAB22129-55-35-46-49-1-D04 (VHH)
VHH: QLQLVESGGGLVQPGGSLRLSCVISGGTFHPYPIGWFREAPGKEREGVLCINSGGQSEISANSAHDPKYADSVKGRFTISRDNAANTVYLQMNNLEPGDTAVYYCAAPREIYVDPYCPTYAYEYWGQGTQVTVSA
In the case of B16, the EC50 [1] is reported as 0.0621 µg/mL.

B17: SDAB22118-3-D01 (VHH)
VHH: QVQLVESGGGLVQAGDSLRLSCAASGRSFSNYVMNWFRQAPGKEREFVAAISRSGRSTFYADSVKGRFTISRDNPKATVYLQMNSLVIEDTAVYFCAAASDITSMRSLAAITSWGQGTQVIVSS
notes: as for B2
Work on B17 yielded an EC50 [2] of 0.429 µg/mL.

B18: SDAB22118-189-192-1-E08 (VHH)
VHH: AVQLVESGGGLVQPGGSLRLSCVASGSSSRNYAMGWYRQAPGNEREFVAVITSRGYTHYANSVSGRFTISRDHAKDTAYLQMNSLKPEDTAVYYCNTQAGLLPFMTVYDWGTGTQVTVSS
notes: as for B2
For B18, the EC50 [2] was 0.00411 µg/mL.

B19: SDAB22129-55-35-46-49-1-A03 (VHH)
VHH: QVQLVESGGGLVQAGGSLRLSCAVSGRTVSRNVMGWFRQAPGKEREFVAGIGFSGGSTYYADSVKGRFTISRDNAKNTVYLEMNRLQPEDTAVYYCAAPSLPLLTSDLHDYDYWGQGTQVTVSS
notes: as for B1
B19 gave an EC50 [1] of 0.0291 µg/mL.

B20: SDAB22118-189-192-1-E10 (VHH)
VHH: AVQLVDSGGGLVQTGGSLRLSCAASGTIFSINRMAWYRQAPGKQRELVASIFFSGGITHYADFVKGRFTISRDNAKNTMYLQMNSLKPEDTAVYYCKGVIAPNYRRTSNFQDYWGQGTQVTVSS
notes: as for B2
B20 showed an EC50 [2] of 0.0427 µg/mL.
